Experimental data published in patent US12187807B2, “Antibody molecules to C5AR1 and uses thereof” (Visterra, Inc., priority 2020, dated 2025).
Numbering of substitutions follows the chain as printed.

Tests used:
[1] = oral administration, human C5aR1 transgenic mice; cited from earlier work
C5aR1 = target: T1, C5aR1 (Homo sapiens, UniProt P21730); settings: cited from earlier work
T1 sequence (P21730 1-350): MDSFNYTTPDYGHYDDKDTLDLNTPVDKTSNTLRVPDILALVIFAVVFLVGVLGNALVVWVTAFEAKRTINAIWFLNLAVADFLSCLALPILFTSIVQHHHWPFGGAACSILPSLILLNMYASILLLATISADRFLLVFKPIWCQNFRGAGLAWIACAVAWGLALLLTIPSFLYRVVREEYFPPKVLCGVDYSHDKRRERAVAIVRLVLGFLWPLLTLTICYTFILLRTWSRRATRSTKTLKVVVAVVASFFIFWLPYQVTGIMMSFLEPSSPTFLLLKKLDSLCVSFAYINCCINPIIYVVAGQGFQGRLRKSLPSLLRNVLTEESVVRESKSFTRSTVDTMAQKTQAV

[2] = target: T2, human C5aR1 transiently expressed on the surface of Expi293 cells (Homo sapiens, UniProt P21730, K279N); experiment: Cell surface binding (flow cytometry), Expi293 cells transiently expressing human C5aR1; settings: staining with 100 nM of antibody
T2 construct: expressed in transfected cells; host or cells: Expi293 cells, transient
T2 sequence (P21730 with tags, fused parts or gaps K279N limits assumed): T1 sequence (P21730 1-350) with D2N, K279N
Procedure: (§1) Follow up screening to ensure specificity was performed by measuring cell surface binding to cells expressing, for example, human C5aR1, human C5aR2, mouse C5aR1, and control cells that were mock transfected. Briefly, cell surface binding was performed on various C5aR1 expressing cell lines (transiently expressed Expi293 cells, stable C5aR1-U937 cells, and neutrophils isolated from whole blood). Briefly, a titration of antibody diluted in flow buffer (1×PBS with 2% fetal bovine serum) was incubated with cells for 1 hour at 4° C. Cells were washed twice with flow buffer. Anti-human-APC secondary antibody was diluted 1:400 in flow buffer and incubated with cells for 30 minutes. Cells were washed twice with flow buffer and resuspended in 100 μL of flow buffer. Fluorescence was measured using the iQue Screen Plus flow cytometer.

[3] = system: control cells that were mock transfected; experiment: Cell surface binding (flow cytometry), mock transfected Expi293 control cells; settings: staining with 100 nM of antibody
Procedure: as §1

For `Cc1ccc(NC(=O)[C@H]2CCCN(C(=O)c3c(C)cccc3F)[C@H]2c2ccc(NC3CCCC3)cc2)cc1C(F)(F)F` [Avacopan, avacopan], the “severity of anti-MPO NCGN” value [1] is given as “reduced the severity of anti-MPO NCGN”.

B1: C5a: complement component 5a, agonist of C5aR1 (protein, UniProt P01031 678-751, looked up)
C5a anaphylatoxin: TLQKKIEEIAAKYKHSVVKKCCYDGACVNNDETCEQRAARISLGPRCIKAFTECCVVASQLRANISHKDMQLGR
modifications: C5a anaphylatoxin
notes: complement component 5a, agonist of C5aR1
In the case of B1, the “on rate for C5aR1” value (C5aR1) is given as “about 4.8e8 M^−1min^−1”.

B2: Clone_11v2 (antibody, V domains shown)
VH: QVQLQQSGPELVKPGASVKISCKASGYSFSSSWMNWVKQRPGKGLEWIGRISPGDGDTRYSGKFKGKATLTADKSSSTAYMQVTSLTSEDSAIYFCVRFLITSTRYVMDYWGQGTTVTVSS
VL: DVVMTQTPLSLPVSLGDQASISCRSSQSLVHSNGNTYLHWYLQKPGQSPKLLIYKVSNRFSGVPDRFSGSGSGTDFTLKISRVEAEDLGVYFCSQSTLVPPTFGGGTKLEIK
With B2 the “Cell surface binding, Human C5aR1, geometric mean fluorescent intensity” value [2] was 310,187 and the “Cell surface binding, Mock transfection, geometric mean fluorescent intensity” value [3] was 4,976 Clone_454.
